Molecular target: the molecule itself
Assay: native gel or EMSA; native-PAGE (10% acrylamide) of load, unbound, wash and elution fractions of DEAE Sephadex and DEAE Sepharose batch chromatography; 20 mM Tris-HCl, pH 7.0 to 9.0, 50 mM NaCl (1 M NaCl for elution), 4°C

B1: Helicobacter pylori neutrophil-activating protein (natural protein)
chain: MKTFEILKHLQADAIVLFMKVHNFHWNVKGTDFFNVHKATEEIYEEFADMFDDLAERIVQLGHHPLVTLSEAIKLTRVKEETKTSFHSKDIFKEILEDYKYLEKEFKELSNTAEKEGDKVTVTYADDQLAKLQKSIWMLQAHLA
notes: subunit of about 17 kDa on SDS-PAGE; No tag is named; its own experiments show only an oligomer; also called HP-NAP; recombinant HP-NAP; source: E. coli BL21(DE3), plasmid pET42a-NAP; copies: 12
- binding result: binds
